Laboratory results from PMC5407579.

Tests used:
[1] = biological target: α subunit of the oxygenase component of 3-nitrotoluene dioxygenase (3NTDO-ODS2) from Diaphorobacter sp. strain DS2 (Diaphorobacter sp. strain DS2); assay: crystal structure; oxygenase 3NTDO-ODS2 (α and β co-expressed and co-purified), hanging drop vapor diffusion at 277 K, 0.2M sodium citrate tribasic and 20% PEG 3350 pH 8.3; molecular replacement with 1NDO; 2.9 Å
[2] = biological target: β subunit of the oxygenase component of 3-nitrotoluene dioxygenase (3NTDO-ODS2) from Diaphorobacter sp. strain DS2 (Diaphorobacter sp. strain DS2); assay: as above

| stoichiometry N [1] | stoichiometry N [2] | Substance |
| --- | --- | --- |
| 3 |  | α subunit of the oxygenase component of 3-nitrotoluene dioxygenase (3NTDO-ODS2) from Diaphorobacter sp. strain DS2 (natural protein) |
|  | 3 | β subunit of the oxygenase component of 3-nitrotoluene dioxygenase (3NTDO-ODS2) from Diaphorobacter sp. strain DS2 (natural protein) |
